Source: patent publication US20210032365A1 (Chugai, published 2021)
Like-named read-outs stand apart in the source and are kept apart here.

T1: human C1s (human, UniProt P09871 16-688)
T1 construct: also called hC1s; serum-derived human C1s (CompTech)
T1 sequence: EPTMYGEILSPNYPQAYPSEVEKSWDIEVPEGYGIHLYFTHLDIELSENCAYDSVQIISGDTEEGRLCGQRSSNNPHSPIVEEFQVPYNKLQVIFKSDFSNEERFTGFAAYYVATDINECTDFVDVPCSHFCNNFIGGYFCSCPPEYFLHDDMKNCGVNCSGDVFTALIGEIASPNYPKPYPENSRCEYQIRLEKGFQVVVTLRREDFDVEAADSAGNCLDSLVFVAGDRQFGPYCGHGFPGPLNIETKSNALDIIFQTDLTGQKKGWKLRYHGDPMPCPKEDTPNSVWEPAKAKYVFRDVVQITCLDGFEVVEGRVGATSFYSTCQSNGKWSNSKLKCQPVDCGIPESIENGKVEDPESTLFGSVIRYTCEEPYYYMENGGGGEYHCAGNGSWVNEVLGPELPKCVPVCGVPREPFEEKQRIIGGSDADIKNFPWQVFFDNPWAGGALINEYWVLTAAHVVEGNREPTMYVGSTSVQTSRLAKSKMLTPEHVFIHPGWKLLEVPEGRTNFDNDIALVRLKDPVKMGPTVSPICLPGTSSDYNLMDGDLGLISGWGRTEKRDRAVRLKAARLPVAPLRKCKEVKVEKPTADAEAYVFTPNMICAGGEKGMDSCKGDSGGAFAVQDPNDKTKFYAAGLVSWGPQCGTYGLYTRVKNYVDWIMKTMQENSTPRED


Columns and labels:
human C1s [1] = target: T1, human C1s; test: SPR, Ab captured; pH 5.8, 3 uM Ca
Method: (§1) All variants were transiently expressed and purified by the method described above. The binding affinity of each histidine-substituted variant at pH 7.4 and pH 5.8 was determined at 37 degrees C. using Biacore T200 instrument (GE Healthcare). Recombinant Protein A/G (Pierce) was immobilized onto all flow cells of a CM4 sensor chip using an amine coupling kit (GE Healthcare). Antibodies and analytes were prepared in 7(+) buffer (20 mM ACES, 150 mM NaCl, 1.2 mM CaCl2, 0.05% Tween 20, 0.005% NaN3, pH 7.4), 5(+) buffer (20 mM ACES, 150 mM NaCl, 1.2 mM CaCl2, 0.05% Tween 20, 0.005% NaN3, pH 5.8), or 5(−) buffer (20 mM ACES, 150 mM NaCl, 3 micro M CaCl2, 0.05% Tween 20, 0.005% NaN3, pH 5.8). Each antibody was captured onto the sensor surface by protein A/G. Antibody capture levels were aimed at 200 resonance unit (RU). Serum-derived human C1s (CompTech) or recombinant C1s prepared in EXAMPLE 1 was injected at 50 nM, followed by dissociation. The sensor surface was regenerated in each cycle with 10 mM Glycine-HCl, pH 1.5. […] The ratio of KD 5.8+ to KD 7.4+(“KD 5+/7+”) and that of KD 5.8− to KD 7.4+(“KD 5−/7+”) were calculated. When the KD 5+/7+ or KD 5−/7+ of a variant is larger than that of the parent antibody IPN009VH2-SG4GK/IPN009VK3-SK1, that variant is considered to be “pH”- or “pH and Ca”-dependent, respectively. When binding response in 5(+) buffer and/or in 5(−) buffer of a variant is much lower than that of IPN09VH2/IPN009VK3, that variant is also considered as “pH”- and/or “pH and Ca”-dependent. Therefore, such mutations are effective to generate “pH”- and/or “pH and Ca”-dependent antibody. To further enhance “pH” and/or “pH and Ca” dependency, a combination of histidine mutations was conducted. Antibodies with combinations of histidine mutations were evaluated using Biacore by the method described above.

human C1s [2] = target: T1, human C1s; test: SPR, Ab captured; pH 5.8, 3 uM Ca; remark: listed apart in the source
Summary of the method: (§2)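 KD values come from SPR at 37 °C with antibody held on immobilized protein A/G and 50 nM human C1s as analyte. Buffers differed only in pH (7.4 or 5.8) and CaCl2 (1.2 mM or 3 µM). Each pH 5.8 KD was divided by the pH 7.4, 1.2 mM Ca KD.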

human C1s [3] = target: T1, human C1s; test: SPR, Ab captured; pH 5.8, 1.2 mM Ca
Method: as §1

human C1s [4] = target: T1, human C1s; test: SPR, Ab captured; pH 7.4, 1.2 mM Ca
Method: as §1

human C1s [5] = target: T1, human C1s; test: SPR, Ab captured; pH 7.4, 1.2 mM Ca; remark: listed apart in the source
Summary of the method: as §2

human C1s [6] = target: T1, human C1s; test: SPR, Ab captured; pH 5.8, 1.2 mM Ca; remark: listed apart in the source
Summary of the method: as §2

human C1s [7] = target: T1, human C1s; test: SPR, Ab captured; pH 7.4, 1.2 mM Ca; remark: listed apart in the source
Summary of the method: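 Antibody captured on protein A/G (~200 RU) on Biacore T200 at 37C; serum-derived or recombinant human C1s injected at 50 nM, then dissociation. KD measured at pH 7.4 with 1.2 mM Ca and at pH 5.8 with 1.2 mM or 3 uM Ca; KD ratios pH 5.8/pH 7.4 calculated.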

human C1s [8] = target: T1, human C1s; test: SPR; KD pH 5.8 3 uM Ca / KD pH 7.4 1.2 mM Ca
Method: as §1

human C1s [9] = target: T1, human C1s; test: SPR; KD pH 5.8 3 uM Ca / KD pH 7.4 1.2 mM Ca; remark: listed apart in the source
Summary of the method: as §2

human C1s [10] = target: T1, human C1s; test: SPR; KD pH 5.8 1.2 mM Ca / KD pH 7.4 1.2 mM Ca
Method: as §1

human C1s [11] = target: T1, human C1s; test: SPR; KD pH 5.8 1.2 mM Ca / KD pH 7.4 1.2 mM Ca; remark: listed apart in the source
Summary of the method: as §2

Binder | koff (human C1s [1]) [s⁻¹] | kon (human C1s [1]) [M⁻¹ s⁻¹] | koff (human C1s [3]) [s⁻¹] | kon (human C1s [3]) [M⁻¹ s⁻¹] | koff (human C1s [4]) [s⁻¹] | kon (human C1s [4]) [M⁻¹ s⁻¹] | KD 5(-)/7(+) (human C1s [8]) | KD 5(+)/7(+) (human C1s [10]) | Kd (human C1s [1]) [nM] | Kd (human C1s [3]) [nM] | Kd (human C1s [4]) [nM] | other results
C1_IPN009VH2-SG4GK/IPN009VK3-SK1 (antibody, human IgG4 S228P, kappa, parent antibody; variable regions as described in WO2016164358; also called IPN009VH2/IPN009VK3; IPN09VH2/IPN09VK3) heavy: not shown light: QIVLTQSPATLSLSPGERATLSCTASSSVSSSYLHWYQQKPGKAPKLWIYSTSNLASGVPSRFSGSGSGTDYTLTISSLQPEDFATYYCHQYYRLPPITFGQGTKLEIKRTVAAPSVFIFPPSDEQLKSGTASVVCLLNNFYPREAKVQWKVDNALQSGNSQESVTEQDSKDSTYSLSSTLTLSKADYEKHKVYACEVTHQGLSSPVTKSFNRGEC | 0.00204 | 606000 | 0.000108 | 662000 | 0.000298 | 362000 | 4.1 | 0.2 |  |  |  | koff (human C1s [2]): 0.00204 s⁻¹; kon (human C1s [2]): 606000 M⁻¹ s⁻¹; koff (human C1s [5]): 0.000298 s⁻¹; kon (human C1s [5]): 362000 M⁻¹ s⁻¹; koff (human C1s [6]): 0.000108 s⁻¹; kon (human C1s [6]): 662000 M⁻¹ s⁻¹; koff (human C1s [7]): 0.000298 s⁻¹; kon (human C1s [7]): 362000 M⁻¹ s⁻¹; KD 5(-)/7(+) (human C1s [9]): 4.1; KD 5(+)/7(+) (human C1s [11]): 0.2
C1_IPN009VH2-SG4GK/IPN93L0021-SK1 (antibody, human IgG4 S228P, kappa, name in Kabat numbering, also called IPN009VH2/IPN93L0021) heavy: not shown light: QIVLTQSPATLSLSPGERATLSCTASSSVSSSYLHWYQQKPGKAPKLWIYSTSNLASGVPSRFSGSGSGTDYTLTISSLQPEDFATYYCHQYHRLPPITFGQGTKLEIKRTVAAPSVFIFPPSDEQLKSGTASVVCLLNNFYPREAKVQWKVDNALQSGNSQESVTEQDSKDSTYSLSSTLTLSKADYEKHKVYACEVTHQGLSSPVTKSFNRGEC | > 0.1 |  | 0.00203 | 632000 | 0.000898 | 335000 | 3.6 | 1.2 | 9.54 | 3.21 | 2.68 | 
C1_IPN009VH2-SG4GK/IPN93L0024-SK1 (antibody, human IgG4 S228P, kappa, VL = IPN009VK3 with P95H (Kabat); also called IPN009VH2/IPN93L0024) heavy: not shown light: QIVLTQSPATLSLSPGERATLSCTASSSVSSSYLHWYQQKPGKAPKLWIYSTSNLASGVPSRFSGSGSGTDYTLTISSLQPEDFATYYCHQYYRLHPITFGQGTKLEIKRTVAAPSVFIFPPSDEQLKSGTASVVCLLNNFYPREAKVQWKVDNALQSGNSQESVTEQDSKDSTYSLSSTLTLSKADYEKHKVYACEVTHQGLSSPVTKSFNRGEC | 0.132 | 5.92e+06 | 0.00149 | 384000 | 0.000574 | 233000 | 9.1 | 1.6 |  |  |  | 
C1_IPN009VH2-SG4GK/IPN93L0023-SK1 (antibody, human IgG4 S228P, kappa, name in Kabat numbering, also called IPN009VH2/IPN93L0023) heavy: not shown light: QIVLTQSPATLSLSPGERATLSCTASSSVSSSYLHWYQQKPGKAPKLWIYSTSNLASGVPSRFSGSGSGTDYTLTISSLQPEDFATYYCHQYYRHPPITFGQGTKLEIKRTVAAPSVFIFPPSDEQLKSGTASVVCLLNNFYPREAKVQWKVDNALQSGNSQESVTEQDSKDSTYSLSSTLTLSKADYEKHKVYACEVTHQGLSSPVTKSFNRGEC | 0.092 | 6.67e+06 | 0.00131 | 716000 | 0.000725 | 332000 | 6.3 | 0.8 | 13.8 | 1.83 | 2.18 | 
C1_IPN92H0033-SG4GK/IPN009VK3-SK1 (antibody, human IgG4 S228P, kappa, VH = IPN009VH2 with Y99H (Kabat); also called IPN92H0033/IPN009VK3) heavy: not shown light: QIVLTQSPATLSLSPGERATLSCTASSSVSSSYLHWYQQKPGKAPKLWIYSTSNLASGVPSRFSGSGSGTDYTLTISSLQPEDFATYYCHQYYRLPPITFGQGTKLEIKRTVAAPSVFIFPPSDEQLKSGTASVVCLLNNFYPREAKVQWKVDNALQSGNSQESVTEQDSKDSTYSLSSTLTLSKADYEKHKVYACEVTHQGLSSPVTKSFNRGEC | 0.00635 | 664000 | 0.000372 | 722000 | 0.00026 | 328000 | 12.1 | 0.7 |  |  |  | 
C1_IPN92H0026-SG4GK/IPN009VK3-SK1 (antibody, human IgG4 S228P, kappa, name in Kabat numbering, V domains shown, also called IPN92H0026/IPN009VK3) VH: EVMLVESGGGLVKPGGSLRLSCAASGFTFSNYAMSWVRQAPGKGLEWVATISSGGSHTYYLDSVKHRFTISRDNSKDTLYLQMNSLRAEDTALYYCARLFTGYAMDYWGQGTLVTVSS VL: QIVLTQSPATLSLSPGERATLSCTASSSVSSSYLHWYQQKPGKAPKLWIYSTSNLASGVPSRFSGSGSGTDYTLTISSLQPEDFATYYCHQYYRLPPITFGQGTKLEIKR | 0.00171 | 665000 | 0.000162 | 729000 | 0.000236 | 430000 | 4.7 | 0.4 | 2.58 | 0.222 | 0.549 | 
